Patent publication US20100256217A1 (University of Pennsylvania, published 2010)

Biological target: T1, human CK2β subunit, cloned from HeLa cell cDNA (pcCK2β) (human, UniProt P67870 1-215)
T1 construct: 35S-labeled in vitro translated protein in the in vitro assay; Expressed in transfected 293T cells in the in vivo assay; also called CKβ; CK2 beta
Assay: in vitro binding assay, 35S-labeled in vitro translated proteins, co-immunoprecipitation with anti-His or anti-CK2β, autoradiography

T1 sequence (P67870 whole entry): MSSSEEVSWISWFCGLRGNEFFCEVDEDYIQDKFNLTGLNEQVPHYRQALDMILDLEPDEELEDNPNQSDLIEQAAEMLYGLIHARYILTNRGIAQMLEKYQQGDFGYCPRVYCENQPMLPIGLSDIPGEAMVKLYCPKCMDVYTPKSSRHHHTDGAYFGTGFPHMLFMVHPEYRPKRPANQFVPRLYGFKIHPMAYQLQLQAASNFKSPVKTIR

B1: West Nile virus capsid protein with a C-terminal polyhistidine tag, encoded by pcWNV C-His (other)
chain: MSKKPGGPGKSRAVNMLKRGMPRVLSLIGLKRAMLSLIDGKGPIRFVLALLAFFRFTAIAPTRAVLDRWRGVNKQTAMKHLLSFKKELGTLTSAINRRSSKQKKRGGKTGIAVMIGLIASVGA
notes: The capsid is its N-terminal part; also called WNV Cp; protein C; not shown: C-terminal polyhistidine tag from the pcDNA3.1 V5/HisA vector
**Q.** Does B1 bind?
**A.** no binding
